Measured values from paper PMC4920195, “Non-Smc element 5 (Nse5) of the Smc5/6 complex interacts with SUMO pathway components” (Biology Open, 2016).
Values belong to the molecule of their own block, whether it stands above or below them.

Assays:
Assay in all cases: two-hybrid; LexA bait and B42 activating domain prey, galactose-induced; liquid culture, quantitative beta-galactosidase activity of permeabilized cells with reporter pSH18034, wild-type cells (JC470)
[1] = molecular target: Nse5-ts2-LexA (S. cerevisiae) (UniProt Q03718)
Nse5-Y123H-LexA = molecular target: T1, Nse5-Y123H-LexA (S. cerevisiae, UniProt Q03718 1-556, Y123H); settings: partners not purified
T1 construct: Nse5 of Saccharomyces cerevisiae, point mutant; also called J-131; source: yeast two-hybrid fusion, galactose-inducible promoter, in S. cerevisiae
T1 sequence (looked up): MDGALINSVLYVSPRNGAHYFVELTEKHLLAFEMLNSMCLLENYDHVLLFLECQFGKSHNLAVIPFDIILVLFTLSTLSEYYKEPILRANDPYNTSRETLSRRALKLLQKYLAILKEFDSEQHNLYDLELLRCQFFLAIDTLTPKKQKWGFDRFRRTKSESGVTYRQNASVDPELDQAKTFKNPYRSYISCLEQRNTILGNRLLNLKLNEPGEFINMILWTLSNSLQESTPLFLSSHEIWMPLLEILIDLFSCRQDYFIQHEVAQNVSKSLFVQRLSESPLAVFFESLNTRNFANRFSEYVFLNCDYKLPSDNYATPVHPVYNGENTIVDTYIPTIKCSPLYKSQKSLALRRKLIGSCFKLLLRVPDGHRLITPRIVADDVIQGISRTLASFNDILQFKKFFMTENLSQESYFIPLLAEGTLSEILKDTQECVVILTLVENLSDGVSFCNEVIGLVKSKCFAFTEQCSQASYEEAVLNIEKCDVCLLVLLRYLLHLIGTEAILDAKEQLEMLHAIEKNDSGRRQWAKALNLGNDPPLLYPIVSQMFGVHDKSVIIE

Nse5-Y111H-LexA = molecular target: T2, Nse5-Y111H-LexA (S. cerevisiae, UniProt Q03718 1-556, Y111H); settings: partners not purified
T2 construct: Nse5 of Saccharomyces cerevisiae, point mutant; also called J-132; source: yeast two-hybrid fusion, galactose-inducible promoter, in S. cerevisiae
T2 sequence (looked up): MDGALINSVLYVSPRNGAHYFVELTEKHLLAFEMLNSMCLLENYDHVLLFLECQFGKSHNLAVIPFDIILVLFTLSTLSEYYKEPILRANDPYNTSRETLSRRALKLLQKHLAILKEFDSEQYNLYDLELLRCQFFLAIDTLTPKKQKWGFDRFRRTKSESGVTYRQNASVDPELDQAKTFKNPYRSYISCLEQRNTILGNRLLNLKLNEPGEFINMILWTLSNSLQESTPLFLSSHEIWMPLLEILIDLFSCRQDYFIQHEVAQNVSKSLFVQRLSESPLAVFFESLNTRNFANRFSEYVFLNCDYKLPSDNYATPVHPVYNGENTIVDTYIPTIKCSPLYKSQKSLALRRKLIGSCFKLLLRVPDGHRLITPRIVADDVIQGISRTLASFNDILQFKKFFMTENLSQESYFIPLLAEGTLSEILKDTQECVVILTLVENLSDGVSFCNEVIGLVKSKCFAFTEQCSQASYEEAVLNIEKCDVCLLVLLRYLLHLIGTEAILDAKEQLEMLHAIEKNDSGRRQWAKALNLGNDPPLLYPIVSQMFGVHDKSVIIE

Nse5-H319Y-LexA = molecular target: T3, Nse5-H319Y-LexA (S. cerevisiae, UniProt Q03718 1-556, H319Y); settings: partners not purified
T3 construct: Nse5 of Saccharomyces cerevisiae, point mutant; also called J-120; source: yeast two-hybrid fusion, galactose-inducible promoter, in S. cerevisiae
T3 sequence (looked up): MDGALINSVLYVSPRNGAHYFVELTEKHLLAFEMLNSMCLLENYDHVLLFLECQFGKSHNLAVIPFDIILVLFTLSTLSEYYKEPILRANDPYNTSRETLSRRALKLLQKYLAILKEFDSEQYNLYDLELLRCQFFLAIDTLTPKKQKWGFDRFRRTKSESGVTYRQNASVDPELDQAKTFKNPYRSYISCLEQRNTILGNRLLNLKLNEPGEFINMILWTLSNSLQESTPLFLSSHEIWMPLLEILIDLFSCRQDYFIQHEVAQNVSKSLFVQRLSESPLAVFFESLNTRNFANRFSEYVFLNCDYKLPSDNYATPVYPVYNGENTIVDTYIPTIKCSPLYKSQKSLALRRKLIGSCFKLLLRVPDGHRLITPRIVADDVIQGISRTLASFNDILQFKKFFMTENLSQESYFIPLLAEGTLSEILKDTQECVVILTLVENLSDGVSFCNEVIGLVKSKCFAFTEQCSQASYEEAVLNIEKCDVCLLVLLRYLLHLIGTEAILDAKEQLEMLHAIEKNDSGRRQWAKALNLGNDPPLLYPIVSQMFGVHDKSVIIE

Nse5-LexA (wild type) = molecular target: T4, Nse5-LexA (wild type) (S. cerevisiae, UniProt Q03718 1-556); settings: partners not purified
T4 construct: Nse5 of Saccharomyces cerevisiae, NSE5 gene cloned into a pEG202-derived bait plasmid; also called Non-Smc element 5; J-038; source: yeast two-hybrid fusion, galactose-inducible promoter, in S. cerevisiae
T4 sequence (looked up): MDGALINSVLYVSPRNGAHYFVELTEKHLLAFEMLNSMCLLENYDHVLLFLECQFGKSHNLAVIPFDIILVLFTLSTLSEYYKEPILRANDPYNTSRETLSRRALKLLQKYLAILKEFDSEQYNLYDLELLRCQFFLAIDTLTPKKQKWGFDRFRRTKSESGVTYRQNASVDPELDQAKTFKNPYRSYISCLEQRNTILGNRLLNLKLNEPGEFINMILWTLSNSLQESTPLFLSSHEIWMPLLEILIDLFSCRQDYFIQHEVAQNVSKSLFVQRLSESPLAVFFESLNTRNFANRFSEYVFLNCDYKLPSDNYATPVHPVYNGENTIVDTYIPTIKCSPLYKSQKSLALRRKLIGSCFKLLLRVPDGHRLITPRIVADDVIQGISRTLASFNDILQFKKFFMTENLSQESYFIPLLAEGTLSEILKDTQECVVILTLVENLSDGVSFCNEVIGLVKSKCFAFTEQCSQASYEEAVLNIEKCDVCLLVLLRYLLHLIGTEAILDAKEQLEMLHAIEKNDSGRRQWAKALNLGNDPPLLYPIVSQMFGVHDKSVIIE

two-hybrid signal as percent of wild-type Nse5 [1]: 63%
Molecule: Nse6-AD (natural protein)

two-hybrid signal as percent of wild-type Nse5 (Nse5-Y123H-LexA): 75%
two-hybrid signal as percent of wild-type Nse5 (Nse5-Y111H-LexA): 18%
two-hybrid signal as percent of wild-type Nse5 (Nse5-H319Y-LexA): 40%
B1: Smt3-AD (natural protein, S. cerevisiae, UniProt Q12306 1-101, looked up)
chain: MSDSEVNQEAKPEVKPEVKPETHINLKVSDGSSEIFFKIKKTTPLRRLMEAFAKRQGKEMDSLRFLYDGIRIQADQTPEDLDMEDNDIIEAHREQIGGATY
notes: Smt3 (SUMO) of Saccharomyces cerevisiae, SMT3 cloned into a pJG4-6-derived prey vector; also called SUMO; J-043; source: yeast two-hybrid fusion, galactose-inducible promoter, in S. cerevisiae

two-hybrid signal as fold of the interactions with Siz1 and Siz2 (Nse5-LexA (wild type)): ~5 fold
B2: Ubc9-AD (wild type) (enzyme, S. cerevisiae, UniProt P50623 1-157, looked up)
chain: MSSLCLQRLQEERKKWRKDHPFGFYAKPVKKADGSMDLQKWEAGIPGKEGTNWAGGVYPITVEYPNEYPSKPPKVKFPAGFYHPNVYPSGTICLSILNEDQDWRPAITLKQIVLGVQDLLDSPNPNSPAQEPAWRSFSRNKAEYDKKVLLQAKQYSK
notes: Ubc9 of Saccharomyces cerevisiae, UBC9 cloned into a pJG4-6-derived prey vector; also called E2 conjugating enzyme; J-042; source: yeast two-hybrid fusion, galactose-inducible promoter, in S. cerevisiae
